From the supplement of paper PMC10567573

B1: PTPRD (parent)
chain: LTKLREMGREKCHQYWPAERSARY
B2: LCOR (parent)
chain: PCAGSTSLSHSPGCSSTQGNGRPG

Variants of: B1
Test: protein stability index of a GFP-peptide fusion (GPS, HEK-293T) (PSI 1-6); higher = more stable
Details: c terminus: a fixed tail appended
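Note: lentivirally expressed fusions sorted by FACS into six bins by GFP to DsRed ratio, PSI derived from sequencing read proportions per bin multiplied by bin number.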

Protein stability index: each site, then its substitutions
R23: T 2.4 | H 2.26 | M 1.69 | N 2.24 | C 2.06 | Y 1.6 | K 2.49 | F 1.79 | V 1.85 | S 1.96 | G 2.38 | D 3.39 | L 2.09 | A 2.42 | E 2.67 | W 1.68 | Q 1.74 | P 3.02 | I 1.99
Y24: N 3.2 | S 3.01 | A 2.59 | V 2.41 | D 3.55 | T 2.35 | R 2.7 | L 2.31 | K 3.02 | F 2.21 | E 3.1 | W 2.46 | M 2.12 | I 2.29 | Q 2.65 | P 2.5 | C 2.65 | H 2.75 | G 2.67
A22: T 3.02 | W 1.83 | K 2.65 | P 2.65 | Q 2.54 | L 2.12 | F 1.58 | S 2.16 | R 2.42 | H 2.21 | V 2.64 | Y 2.23 | G 2.33 | M 2.33 | N 2.57 | I 2.08

Variants of: B2
Test: as above
Details: c terminus: a fixed tail appended

Protein stability index of substitutions, site by site:
P23: W 2.44 | I 3.02 | C 3.45 | D 4.15 | S 3.44 | E 3.39 | R 3.22 | K 3.78 | Q 2.03 | N 3.79 | T 3.34 | Y 2.75
A3: T 3.06 | C 4.78 | D 4.98 | G 3.4 | K 4.69 | E 2.77 | L 3.93 | I 4.1 | M 3.63
P12: Y 3.39 | F 1.91 | D 4.35 | G 4.15 | I 2.73 | K 3.86 | R 2.92 | C 1.01 | T 4.1 | H 3.9 | E 4.43 | Q 3.02 | L 3.23 | M 3.12 | A 3.99
C2: L 4.76 | W 4.09 | A 2.92 | Q 4.65 | T 3.63 | K 4.48 | H 4.99 | R 5.27 | S 3.28 | I 2.92 | F 3.99 | V 4.04
N20: E 2.88 | D 3.44 | V 3.58 | A 4.09 | R 3.07 | F 2.66 | S 3.1 | P 2.51 | T 2.35
S7: F 2.72 | K 4 | H 2.42 | W 3.05 | I 1.92 | T 3.19 | Q 3.23 | N 3.43
T6: K 2.71 | S 2.77 | H 3.11 | E 5.02 | P 3.69 | Y 3.39 | V 3.9
G24: V 2.68 | Y 2.61 | T 3.51 | H 3.81 | W 2.47 | R 3.07 | A 3.38 | Q 3.37 | P 3.42 | C 2.48 | M 2.82 | K 3.77 | N 3.87 | I 3.09 | L 2.94 | F 2.95 | D 3.72 | E 2.65
L8: F 3.91 | E 4.45 | P 4.24 | T 4.15 | Y 4.95 | G 4.25 | K 4.34 | N 4.15 | R 3.87
P1: E 3.77 | M 3.39 | L 3.57 | D 4.08 | I 3.48 | H 2.48 | F 3.04 | N 4.33 | S 3.12 | C 4.16 | A 2.61 | R 3.63 | K 4.35
G4: K 4.38
